The target of assay [1] is MOP receptor stably expressed in CHO-K1 cells (plasma membranes) (UniProt P35372). As to the kind of experiment: radioligand binding.
The target is the same in assay [2]. The assay can be described thus: radioligand binding. The source holds these as a separate data set.

Read-outs that look alike come from different tables or passages of the source.

Chain of UniProt P35372 (P35372 whole entry): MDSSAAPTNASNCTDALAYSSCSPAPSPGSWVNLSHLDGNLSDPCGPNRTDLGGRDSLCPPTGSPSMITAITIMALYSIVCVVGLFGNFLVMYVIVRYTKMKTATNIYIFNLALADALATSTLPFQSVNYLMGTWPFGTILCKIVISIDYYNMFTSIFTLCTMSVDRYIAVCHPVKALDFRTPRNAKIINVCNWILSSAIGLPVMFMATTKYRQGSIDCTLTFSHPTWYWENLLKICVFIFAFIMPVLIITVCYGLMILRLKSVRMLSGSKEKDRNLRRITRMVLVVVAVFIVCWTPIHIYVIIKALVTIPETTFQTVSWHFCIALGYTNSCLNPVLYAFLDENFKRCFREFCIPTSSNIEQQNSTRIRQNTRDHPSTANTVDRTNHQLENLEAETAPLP

In general, Ki refers to the dissociation constant of the complex between target and ligand, obtained from inhibition or displacement. A high value points to weaker binding. On to “DAMGO, [D-Ala^2, NMePHe^4, Gly^5-ol]enkephalin (peptide)”, for which the results for the Ki in assay [1] and in assay [2] were 6.7 nM and 11 nM, respectively.

The values are drawn from article PMC2650857.
